Data on one molecule can be found in PMC2133165 (The Journal of Cell Biology, 1999).

The target in one experiment is T1, SF3a60 (human (endogenous in HeLa), UniProt Q12874 1-501).
T1 sequence: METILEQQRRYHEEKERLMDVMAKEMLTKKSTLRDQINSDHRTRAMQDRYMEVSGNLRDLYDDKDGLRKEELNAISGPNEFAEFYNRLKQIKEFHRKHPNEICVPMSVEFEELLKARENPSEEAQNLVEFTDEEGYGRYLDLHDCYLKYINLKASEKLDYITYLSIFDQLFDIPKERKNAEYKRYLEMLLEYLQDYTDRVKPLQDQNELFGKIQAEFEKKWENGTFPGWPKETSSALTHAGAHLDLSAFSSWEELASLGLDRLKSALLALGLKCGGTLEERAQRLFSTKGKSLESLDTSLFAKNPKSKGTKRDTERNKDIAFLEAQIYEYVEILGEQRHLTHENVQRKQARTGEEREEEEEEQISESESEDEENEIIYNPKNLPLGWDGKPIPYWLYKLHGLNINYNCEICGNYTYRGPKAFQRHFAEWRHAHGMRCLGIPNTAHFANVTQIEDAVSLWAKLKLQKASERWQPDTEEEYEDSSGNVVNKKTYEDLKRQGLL
Nature of the experiment: co-IP.

The target of another experiment is T2, SF3a120 (human (endogenous in HeLa), UniProt Q15459 1-793).
T2 sequence: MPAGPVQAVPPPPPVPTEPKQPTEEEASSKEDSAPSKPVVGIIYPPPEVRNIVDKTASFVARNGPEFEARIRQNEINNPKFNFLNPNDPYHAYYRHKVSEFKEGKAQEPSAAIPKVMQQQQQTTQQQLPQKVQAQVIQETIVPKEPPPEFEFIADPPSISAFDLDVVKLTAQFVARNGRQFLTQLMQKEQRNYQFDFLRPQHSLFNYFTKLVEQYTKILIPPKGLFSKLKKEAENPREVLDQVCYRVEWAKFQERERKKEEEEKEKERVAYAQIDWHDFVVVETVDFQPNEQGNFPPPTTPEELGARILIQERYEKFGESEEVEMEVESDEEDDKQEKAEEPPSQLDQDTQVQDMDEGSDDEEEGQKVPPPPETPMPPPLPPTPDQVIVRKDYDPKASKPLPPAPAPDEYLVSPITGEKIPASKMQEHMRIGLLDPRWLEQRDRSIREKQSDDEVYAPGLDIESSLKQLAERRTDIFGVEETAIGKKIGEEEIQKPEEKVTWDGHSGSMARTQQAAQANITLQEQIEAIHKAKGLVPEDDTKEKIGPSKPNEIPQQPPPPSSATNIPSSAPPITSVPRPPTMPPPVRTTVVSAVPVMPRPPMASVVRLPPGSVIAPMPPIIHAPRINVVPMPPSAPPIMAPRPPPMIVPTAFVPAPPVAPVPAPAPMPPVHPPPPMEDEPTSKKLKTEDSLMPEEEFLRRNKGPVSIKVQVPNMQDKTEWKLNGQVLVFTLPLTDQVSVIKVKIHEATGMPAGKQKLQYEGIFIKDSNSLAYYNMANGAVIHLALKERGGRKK
Nature of the experiment: co-IP.

B1: SF3a66 (natural protein)
chain: MDFQHRPGGKTGSGGVASSSESNRDRRERLRQLALETIDINKDPYFMKNHLGSYECKLCLTLHNNEGSYLAHTQGKKHQTNLARRAAKEAKEAPAQPAPEKVKVEVKKFVKIGRPGYKVTKQRDSEMGQQSLLFQIDYPEIAEGIMPRHRFMSAYEQRIEPPDRRWQYLLMAAEPYETIAFKVPSREIDKAEGKFWTHWNRETKQFFLQFHFKMEKPPAPPSLPAGPPGVKRPPPPLMNGLPPRPPLPESLPPPPPGGLPLPPMPPTGPAPSGPPGPPQLPPPAPGVHPPAPVVHPPASGVHPPAPGVHPPAPGVHPPAPGVHPPTSGVHPPAPGVHPPAPGVHPPAPGVHPPAPGVHPPAPGVHPPPSAGVHPQAPGVHPAAPAVHPQAPGVHPPAPGMHPQAPGVHPQPPGVHPSAPGVHPQPPGVHPSNPGVHPPTPMPPMLRPPLPSEGPGNIPPPPPTN
For the molecule B1, the binding result with SF3a60 and with SF3a120 was “binds” in each case.
